From the supplement of paper PMC9233669 come the findings set out here.

Fewer inactive variants are shown than the library holds.

One data set concerns biotinyl-Phe-oxazolone. Put plainly: self-aminoacylation, catalytic enhancement (BFO) (fold over background); higher = more active; k-Seq, kA / k0A0; sequences stand for … in GGGAAUGGAUCCACAUCUACGAAUUC…UUCACUGCAGACUUGACGAAGCUG
A digest of the protocol: (§1)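 The uncatalyzed rate is the low-activity peak of a bimodal Gaussian fit, and catalytic enhancement is median kA divided by it. The kA values came from pseudo-first-order fits, with 1000 bootstraps, of per-sequence fraction reacted measured by streptavidin capture, triplicate qPCR and Illumina sequencing. Mutagenized RNA pools with a 21-nt variable region (0.43 μM) were reacted with each biotinyl-aminoacyl-oxazolone at 2–1250 μM in 50 μL HEPES/NaCl/KCl/MgCl2/CaCl2 buffer with 5% acetonitrile, pH 6.9–7.0, for 90 minutes at room temperature.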

The next data set relates to biotinyl-Ile-oxazolone. Put plainly: self-aminoacylation, catalytic enhancement (BIO) (fold over background); higher = more active; k-Seq, kA / k0A0; sequences stand for … in GGGAAUGGAUCCACAUCUACGAAUUC…UUCACUGCAGACUUGACGAAGCUG
The essentials: as §1

Another data set relates to biotinyl-Met-oxazolone. The data set is described as follows: self-aminoacylation, catalytic enhancement (BMO) (fold over background); higher = more active; k-Seq, kA / k0A0; sequences stand for … in GGGAAUGGAUCCACAUCUACGAAUUC…UUCACUGCAGACUUGACGAAGCUG
A digest of the protocol: as §1

A further data set concerns biotinyl-Val-oxazolone. Put plainly: self-aminoacylation, catalytic enhancement (BVO) (fold over background); higher = more active; k-Seq, kA / k0A0; sequences stand for … in GGGAAUGGAUCCACAUCUACGAAUUC…UUCACUGCAGACUUGACGAAGCUG
The essentials:
as §1

Another data set deals with biotinyl-Leu-oxazolone. Put plainly: self-aminoacylation, catalytic enhancement (BLO) (fold over background); higher = more active; k-Seq, kA / k0A0; sequences stand for … in GGGAAUGGAUCCACAUCUACGAAUUC…UUCACUGCAGACUUGACGAAGCUG
The essentials:
as §1

The next data set concerns biotinyl-Trp-oxazolone. Put plainly: self-aminoacylation, catalytic enhancement (BWO) (fold over background); higher = more active; k-Seq, kA / k0A0; sequences stand for … in GGGAAUGGAUCCACAUCUACGAAUUC…UUCACUGCAGACUUGACGAAGCUG
A digest of the protocol:
as §1

For “CCACAGAUCAAGCAAUCGGUC [Fam1B.1 aminoacylation ribozyme variant]”, the self-aminoacylation came to 2.39 in the data set on biotinyl-Phe-oxazolone; 1.01 in the data set with biotinyl-Ile-oxazolone; 0.576 in the data set with biotinyl-Met-oxazolone; 0.824 in the data set on biotinyl-Val-oxazolone; 0.81 with biotinyl-Leu-oxazolone; 1.61 in the data set on biotinyl-Trp-oxazolone.
For “CCACACUUCGAGUAAUCGGUC [Fam1B.1 aminoacylation ribozyme variant]”, the self-aminoacylation in the data set on biotinyl-Phe-oxazolone worked out at 0.641; in the data set with biotinyl-Ile-oxazolone, 0.822; with biotinyl-Met-oxazolone it was 0.958; in the data set with biotinyl-Val-oxazolone, 0.893; with biotinyl-Leu-oxazolone, 0.78; in the data set on biotinyl-Trp-oxazolone, 0.789.
Consider “CUACUUCCAGCAAUCGGUCUG [Fam1A.1 aminoacylation ribozyme variant]”, for which the self-aminoacylation was found to be 0.605 with biotinyl-Phe-oxazolone; 0.87 with biotinyl-Ile-oxazolone; 0.77 in the data set with biotinyl-Met-oxazolone; 0.961 with biotinyl-Val-oxazolone; 1.04 in the data set with biotinyl-Leu-oxazolone; 0.458 with biotinyl-Trp-oxazolone.
For the sequence “AAGUUCGCUCAUAGUCGCAAG [Fam3.1 aminoacylation ribozyme variant]”, the self-aminoacylation in the data set on biotinyl-Phe-oxazolone came out at 7.56; in the data set on biotinyl-Ile-oxazolone it was 2.23; in the data set on biotinyl-Met-oxazolone, 2.01; with biotinyl-Val-oxazolone it was 1.77; in the data set on biotinyl-Leu-oxazolone, 1.96; in the data set with biotinyl-Trp-oxazolone, 2.26.
On to “AUUACCUUGGUCAUCGAGUGA [Fam2.1 aminoacylation ribozyme variant]”, for which the self-aminoacylation is 7.72 in the data set with biotinyl-Phe-oxazolone; 3.7 with biotinyl-Ile-oxazolone; 6.66 in the data set on biotinyl-Met-oxazolone; 3.88 in the data set with biotinyl-Val-oxazolone; 6.89 in the data set with biotinyl-Leu-oxazolone; 8.16 in the data set with biotinyl-Trp-oxazolone.
Regarding “CCACACUUCAAGCUUUCGGUC [Fam1B.1 aminoacylation ribozyme variant]”, the self-aminoacylation in the data set with biotinyl-Phe-oxazolone was determined as 0.741; in the data set with biotinyl-Ile-oxazolone it was 1.53; in the data set on biotinyl-Met-oxazolone, 1.17; with biotinyl-Val-oxazolone it was 1.64; in the data set with biotinyl-Leu-oxazolone, 1.3; with biotinyl-Trp-oxazolone, 1.1.
For the sequence “AUUCUCCUAUGUCAUCGGGUG [Fam2.2 aminoacylation ribozyme variant]”, the self-aminoacylation with biotinyl-Phe-oxazolone was determined as 65.9; in the data set with biotinyl-Ile-oxazolone, 5.5; in the data set on biotinyl-Met-oxazolone, 9.01; in the data set with biotinyl-Val-oxazolone it was 5.62; with biotinyl-Leu-oxazolone, 11.6; in the data set with biotinyl-Trp-oxazolone it was 8.54.
“AUUACCCUGGUCAACGACUGA [Fam2.1 aminoacylation ribozyme variant]”: the self-aminoacylation is 0.635 in the data set with biotinyl-Phe-oxazolone; 0.653 in the data set with biotinyl-Ile-oxazolone; 0.47 with biotinyl-Met-oxazolone; 0.66 in the data set on biotinyl-Val-oxazolone; 0.523 in the data set on biotinyl-Leu-oxazolone; 0.514 with biotinyl-Trp-oxazolone.
Consider “AUGCAUCUAGGUCAUCGGGUG [Fam2.2 aminoacylation ribozyme variant]”, for which the self-aminoacylation worked out at 57 in the data set on biotinyl-Phe-oxazolone; 5.83 in the data set on biotinyl-Ile-oxazolone; 8.33 in the data set with biotinyl-Met-oxazolone; 5.41 in the data set on biotinyl-Val-oxazolone; 9.38 with biotinyl-Leu-oxazolone; 9.62 in the data set on biotinyl-Trp-oxazolone.
Turning to “UCACACUUCAAGCAAGCGGUC [Fam1B.1 aminoacylation ribozyme variant]”, the self-aminoacylation in the data set on biotinyl-Phe-oxazolone was 0.807; with biotinyl-Ile-oxazolone, 0.965; in the data set on biotinyl-Met-oxazolone, 1.02; with biotinyl-Val-oxazolone, 1.06; in the data set on biotinyl-Leu-oxazolone, 0.991; with biotinyl-Trp-oxazolone, 0.746.
Take “AAGUUUGCUAAUAGUCGCACC [Fam3.1 aminoacylation ribozyme variant]”: the self-aminoacylation worked out at 1.29 in the data set with biotinyl-Phe-oxazolone; 0.81 with biotinyl-Ile-oxazolone; 0.569 in the data set with biotinyl-Met-oxazolone; 0.756 in the data set with biotinyl-Val-oxazolone; 0.718 in the data set with biotinyl-Leu-oxazolone; 0.849 in the data set with biotinyl-Trp-oxazolone.
In the case of “AUUACCGUGGUCCUCGAGUGA [Fam2.1 aminoacylation ribozyme variant]”, the self-aminoacylation was 29.2 in the data set with biotinyl-Phe-oxazolone; 2.57 in the data set on biotinyl-Ile-oxazolone; 4.11 with biotinyl-Met-oxazolone; 3.69 with biotinyl-Val-oxazolone; 4.19 with biotinyl-Leu-oxazolone; 4.82 with biotinyl-Trp-oxazolone.
As for “AGGUUUGCUAAGAGUCGCAAG [Fam3.1 aminoacylation ribozyme variant]”, the self-aminoacylation in the data set with biotinyl-Phe-oxazolone came to 3.17; in the data set with biotinyl-Ile-oxazolone, 1.12; with biotinyl-Met-oxazolone it was 1.15; in the data set with biotinyl-Val-oxazolone, 1.02; in the data set on biotinyl-Leu-oxazolone it was 1.02; in the data set with biotinyl-Trp-oxazolone, 1.54.
As for “AUUACGCUGGUCAUCGUGUGA [Fam2.1 aminoacylation ribozyme variant]”, the self-aminoacylation came out at 15.4 in the data set on biotinyl-Phe-oxazolone; 1.62 in the data set on biotinyl-Ile-oxazolone; 2.48 with biotinyl-Met-oxazolone; 1.6 with biotinyl-Val-oxazolone; 2.59 in the data set on biotinyl-Leu-oxazolone; 3 in the data set on biotinyl-Trp-oxazolone.
With “AUUCACCAAGGACAUCGGGUG [Fam2.2 aminoacylation ribozyme variant]”, the self-aminoacylation came out at 30 with biotinyl-Phe-oxazolone; 3.2 with biotinyl-Ile-oxazolone; 4.65 with biotinyl-Met-oxazolone; 3.27 in the data set on biotinyl-Val-oxazolone; 4.96 with biotinyl-Leu-oxazolone; 4.17 in the data set with biotinyl-Trp-oxazolone.
Consider “AAGCUUGCUAAGAGUCGCAAG [Fam3.1 aminoacylation ribozyme variant]”, for which the self-aminoacylation with biotinyl-Phe-oxazolone was found to be 3.44; with biotinyl-Ile-oxazolone, 2.51; in the data set with biotinyl-Met-oxazolone, 2.23; in the data set on biotinyl-Val-oxazolone, 2.44; with biotinyl-Leu-oxazolone it was 2.66; with biotinyl-Trp-oxazolone, 3.08.
For the sequence “AUUACCCUGGCCAUCGCGUGA [Fam2.1 aminoacylation ribozyme variant]”, the self-aminoacylation in the data set with biotinyl-Phe-oxazolone worked out at 56.3; with biotinyl-Ile-oxazolone, 4.28; in the data set on biotinyl-Met-oxazolone, 6.31; in the data set with biotinyl-Val-oxazolone it was 4.81; in the data set on biotinyl-Leu-oxazolone, 11; with biotinyl-Trp-oxazolone, 8.64.
As to “AUUCACCUAGGUCGUCGAGUG [Fam2.2 aminoacylation ribozyme variant]”, the self-aminoacylation in the data set on biotinyl-Phe-oxazolone stood at 0.746; with biotinyl-Ile-oxazolone, 0.661; with biotinyl-Met-oxazolone, 0.743; in the data set with biotinyl-Val-oxazolone, 0.878; in the data set on biotinyl-Leu-oxazolone it was 0.851; in the data set on biotinyl-Trp-oxazolone, 0.529.
As to “AAGUUUGCUAAUAAUCGCGAG [Fam3.1 aminoacylation ribozyme variant]”, the self-aminoacylation with biotinyl-Phe-oxazolone was found to be 1.24; in the data set with biotinyl-Ile-oxazolone it was 0.983; in the data set on biotinyl-Met-oxazolone, 0.863; in the data set on biotinyl-Val-oxazolone it was 0.808; in the data set with biotinyl-Leu-oxazolone, 0.744; in the data set on biotinyl-Trp-oxazolone, 1.47.
For the sequence “AUUACCCUAGUCAUCGAGUAA [Fam2.1 aminoacylation ribozyme variant]”, the self-aminoacylation in the data set with biotinyl-Phe-oxazolone was 0.698; in the data set with biotinyl-Ile-oxazolone, 1.28; in the data set with biotinyl-Met-oxazolone it was 1.36; with biotinyl-Val-oxazolone, 1.24; with biotinyl-Leu-oxazolone, 1.19; in the data set on biotinyl-Trp-oxazolone, 0.823.
As to “AUUACCCAGGUCAUCGAGGGA [Fam2.1 aminoacylation ribozyme variant]”, the self-aminoacylation in the data set on biotinyl-Phe-oxazolone came out at 1.52; with biotinyl-Ile-oxazolone, 1.36; in the data set with biotinyl-Met-oxazolone it was 1.38; in the data set with biotinyl-Val-oxazolone, 1.37; in the data set on biotinyl-Leu-oxazolone it was 1.48; with biotinyl-Trp-oxazolone, 1.16.
In the case of “AUUCACCUAGGUCUUUGGGUG [Fam2.2 aminoacylation ribozyme variant]”, the self-aminoacylation was found to be 56.1 in the data set with biotinyl-Phe-oxazolone; 4.28 in the data set with biotinyl-Ile-oxazolone; 6.91 in the data set with biotinyl-Met-oxazolone; 4.09 with biotinyl-Val-oxazolone; 9.98 with biotinyl-Leu-oxazolone; 6.83 in the data set on biotinyl-Trp-oxazolone.
For the sequence “AAGUUUGUUAGUAGUCGCAAG [Fam3.1 aminoacylation ribozyme variant]”, the self-aminoacylation with biotinyl-Phe-oxazolone was found to be 1.02; in the data set on biotinyl-Ile-oxazolone it was 0.852; with biotinyl-Met-oxazolone, 0.841; in the data set on biotinyl-Val-oxazolone, 0.823; in the data set with biotinyl-Leu-oxazolone it was 1.06; with biotinyl-Trp-oxazolone, 0.675.
Turning to “CUACUUCAAACAAUCGAGCUG [Fam1A.1 aminoacylation ribozyme variant]”, the self-aminoacylation with biotinyl-Phe-oxazolone is 0.816; with biotinyl-Ile-oxazolone, 0.85; in the data set with biotinyl-Met-oxazolone, 0.59; with biotinyl-Val-oxazolone, 0.706; in the data set with biotinyl-Leu-oxazolone, 0.481; in the data set on biotinyl-Trp-oxazolone it was 0.396.
On to “AAGUCUGCUCAUAGUCGCAAG [Fam3.1 aminoacylation ribozyme variant]”, for which the self-aminoacylation with biotinyl-Phe-oxazolone came to 8.38; in the data set on biotinyl-Ile-oxazolone, 1.16; with biotinyl-Met-oxazolone, 1.29; in the data set on biotinyl-Val-oxazolone, 1.18; in the data set on biotinyl-Leu-oxazolone, 1.08; in the data set with biotinyl-Trp-oxazolone, 4.23.
